Experimental data as given in patent US20070020258A1 (published 2007).

What was measured:
[1] = target: T1, human IgE purified from U266B1 cells (human, UniProt P01854-1 1-428); assay: IgE/FcεRI inhibition ELISA
T1 construct: domain: Fcε4; Whole IgE; its X residues are spacers that keep Kabat numbering and are not part of the protein; also called U266 IgE; U266 IgE standard
Protocol: A 96-well assay plate (Manufn Nunc.) was coated with 0.05 ml of the FcεRI alpha chain IgG1 chimeric receptor in 1 μg/ml coating buffer ([…] carbonate/bicarbonate, pH 9.6). Assay was done for 12 hours at 4-8° C. The wells were aspirated and 250 μl blocking buffer (PBS-1% BSA pH 7.2) was added and incubated for one hour at 4° C. […] The FcεRI-coated wells were washed three times with PBS-0.05% Tween20, and then 50 μl from the sample wells were transferred and incubated with agitation for 30 minutes at 25° C. 50 μl/well of streptavidin-HRP diluted 1:5000 in assay buffer was incubated for 15 minutes with agitation and then the plate was washed as before. 50 μl/well of Microwell peroxidase substrate (Kirkgaard & Parry Laboratories) was added and color was developed for 30 minutes.

[2] = target: T2, human IgE (ND and PS allotypes) (human, UniProt P01854-1 1-428, tracer iodinated with 125I (chloramine T)); assay: 125I-IgE equilibrium binding, Scatchard
T2 construct: IgE used for the Scatchard Kd; also called 125I IgE; unlabelled IgE
T2 sequence (P01854 other isoform, or with tags, fused parts or gaps): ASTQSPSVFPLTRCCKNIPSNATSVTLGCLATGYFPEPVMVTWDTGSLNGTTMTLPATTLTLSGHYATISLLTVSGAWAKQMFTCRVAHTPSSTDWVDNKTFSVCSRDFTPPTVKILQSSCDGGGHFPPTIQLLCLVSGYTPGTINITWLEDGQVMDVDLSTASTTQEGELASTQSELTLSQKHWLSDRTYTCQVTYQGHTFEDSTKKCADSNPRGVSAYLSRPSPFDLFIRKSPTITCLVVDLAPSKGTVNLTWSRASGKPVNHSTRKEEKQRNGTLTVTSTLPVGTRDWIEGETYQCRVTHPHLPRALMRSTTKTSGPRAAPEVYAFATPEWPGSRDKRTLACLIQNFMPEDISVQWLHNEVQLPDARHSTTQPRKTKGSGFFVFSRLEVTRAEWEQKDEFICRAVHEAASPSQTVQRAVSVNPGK
Protocol: e. Scatchard analysis was performed utilizing a Fortran program (scanplot) based on the Ligand program written by P. Munson at NIH. Scatplot uses a mass action equation fitting bound as a function of total using the Rodbard type regression analysis.

T1 sequence (P01854 other isoform, or with tags, fused parts or gaps): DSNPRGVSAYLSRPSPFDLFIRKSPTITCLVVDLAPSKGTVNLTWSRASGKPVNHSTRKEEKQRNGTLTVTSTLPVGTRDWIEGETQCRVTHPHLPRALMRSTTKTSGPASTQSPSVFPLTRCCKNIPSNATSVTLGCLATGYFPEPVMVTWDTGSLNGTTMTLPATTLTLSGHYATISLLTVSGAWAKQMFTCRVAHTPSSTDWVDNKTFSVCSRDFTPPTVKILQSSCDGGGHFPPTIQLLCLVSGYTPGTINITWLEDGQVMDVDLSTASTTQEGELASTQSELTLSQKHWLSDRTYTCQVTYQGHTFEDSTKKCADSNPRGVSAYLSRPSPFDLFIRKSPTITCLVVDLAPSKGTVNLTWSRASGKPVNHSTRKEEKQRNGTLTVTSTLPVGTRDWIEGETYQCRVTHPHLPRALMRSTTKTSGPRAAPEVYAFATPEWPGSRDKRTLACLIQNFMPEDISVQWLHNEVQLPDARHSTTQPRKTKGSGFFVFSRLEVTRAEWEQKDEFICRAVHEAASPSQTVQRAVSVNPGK

| Binder | ratio Var. X / IgL1H1 [1] | ratio Var. X / MaE11 [1] | Kd [2] [nM] |
| --- | --- | --- | --- |
| MAE11 (antibody, V domains shown, murine IgG1) VH: DVQLQESGPGLVKPSQSLSLACSVTGYSITSGYSWNWIRQFPGNKLEWMGSITYDGSSNYNPSLKNRISVTRDTSQNQFFLKLNSATAEDTATYYCARGSHYFGHWHFAVWGAGTTVTVSS VL: DIVLTQSPASLAVSLGQRATISCKASQSVDYDGDSYMNWYQQKPGQPPILLIYAASYLGSEIPARFSGSGSGTDFTLNIHPVEEEDAATFYCQQSHEDPYTFGAGTKLEIK | 0.06 | 1 | 30 |
| MAE13 (antibody, V domains shown, murine IgG1) VH: DVQLQESGPGLVKPSQSLSLTCTVTGYTITSDNAWNWIRQFPGNKLEWMGYINHSGTTSYNPSLKSRISITRDTSKNQFFLQLNSVTTEDTATYYCAWVVAYAMDYWGQGTSVTVSS VL: DIVMTQSQKFMSTSVGDRVSVTCKASQNVSSNVAWYQQKPGQSPKALIYSASYRYSGVPDRFTGSGSGTDFTLTISNVQSEDLAEYFCQQYYTYPLYTFGGGTKLEIKR |  |  | 50 |
| MAE15 (antibody, V domains shown, murine IgG1) VH: DVQHQESEPDLVKPSQSLSLTCTVTGYSITSGYNRHWIRQFPGNKLEWMGYIHYSGSTNYNPSLKRRISITRDTSKNQFFLQLNSVTTEDTATYYCARGSIYYYGSRYRYFDVWGAGTTVTVSS VL: DIQLTQSPASLAVSLGQRATISCKASQSVDYDGDSYMNWYQQKPGQPPKLLIYAASNLESGIPARFSGSGSGTDFTLNIHPVEEEDAATYYCQQSNEDPFTFGAGT |  |  | 70 |
